# Experimental data taken from patent publication US20150203577A1 (Chugai, published 2015).
# Where a chain is given by its changes, count along the chain named. In names and notes the source's numbering stands.
# T1: mouse FcγRII extracellular domain with C-terminal His tag (mouse, UniProt P08101 30-210)
# T1 construct: Made on the basis of NCBI NP-034317.1; also called mFcγRII; mFcgRII
# T1 sequence: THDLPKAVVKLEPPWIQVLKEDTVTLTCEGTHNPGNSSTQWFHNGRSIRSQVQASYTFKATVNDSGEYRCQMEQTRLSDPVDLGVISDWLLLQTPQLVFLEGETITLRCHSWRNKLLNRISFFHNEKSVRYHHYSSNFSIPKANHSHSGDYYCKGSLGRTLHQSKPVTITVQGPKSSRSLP
# T2: mouse FcγRIII extracellular domain with C-terminal His tag (mouse, UniProt P08508 31-215)
# T2 construct: Made on the basis of NCBI NP-034318.2; also called mFcγRIII; mFcgRIII
# T2 chain: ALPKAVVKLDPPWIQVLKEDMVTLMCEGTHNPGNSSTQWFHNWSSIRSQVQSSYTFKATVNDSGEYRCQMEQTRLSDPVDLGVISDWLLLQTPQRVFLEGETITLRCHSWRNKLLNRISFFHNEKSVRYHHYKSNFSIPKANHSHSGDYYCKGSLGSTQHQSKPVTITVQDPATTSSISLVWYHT
# B1: H237-MB340/MRAL-k0 (antibody, mouse IgG1, kappa)
# heavy: QVQLQESGPGLVKPSETLSLTCAVSGHSISHDHAWSWVRQPPGEGLEWIGFISYSGITNYNPSLQGRVTISRDNSKNTLYLQMNSLRAEDTAVYYCARSLARTTAMDYWGEGTLVTVSSAKTTPPSVYPLAPGSAAQTNSMVTLGCLVKGYFPEPVTVTWNSGSLSSGVHTFPAVLQSDLYTLSSSVTVPSSTWPSETVTCNVAHPASSTKVDKKIVPRDCGCKPCICEAWEVEDVFIFPPKPKDVLTITLTPKVTCVVVDISKDDPEVQFSWFVDDVEVHTAQTQPREEQFNSTFRSVSELPIMHQDWLNGKEFKCRVNSAAFPAPIEKTISKTKGRPKAPQVYTIPPPKEQMAKDKVSLTCMITDFFPEDITVEWQWNGQPAENYKNTQPIMDTDGSYFVYSKLNVQKSNWEAGNTFTCSVLHEGLHNHHTEKSLSHSPGK
# light: not shown
# notes: copies: 2 + 2
# B2: H237-MB341/MRAL-k0 (antibody, mouse IgG1, kappa)
# heavy: B1 heavy with A230D
# light: not shown
# notes: copies: 2 + 2
# B3: H237-MB358/MRAL-k0 (antibody, mouse IgG1, kappa)
# heavy: B1 heavy with W231A
# light: not shown
# notes: copies: 2 + 2
# B4: H237-MB367/MRAL-k0 (antibody, mouse IgG1, kappa)
# heavy: B1 heavy with W231N
# light: not shown
# notes: mIgG1 with T230E/V231A/P232N/S238E/S239D (EU); copies: 2 + 2
# B5: H237-MB377/MRAL-k0 (antibody, mouse IgG1, kappa)
# heavy: B1 heavy with A230V, W231A
# light: not shown
# notes: copies: 2 + 2
# B6: H237-MB378/MRAL-k0 (antibody, mouse IgG1, kappa)
# heavy: B1 heavy with A230V, W231N
# light: not shown
# notes: copies: 2 + 2
# B7: H237-MB380/MRAL-k0 (antibody, mouse IgG1, kappa)
# heavy: B1 heavy with A230D, W231A
# light: not shown
# notes: copies: 2 + 2
# B8: H237-MB381/MRAL-k0 (antibody, mouse IgG1, kappa)
# heavy: B1 heavy with A230D, W231N
# light: not shown
# notes: copies: 2 + 2
# B9: H237-MB383/MRAL-k0 (antibody, mouse IgG1, kappa)
# heavy: B1 heavy with A230N, W231P
# light: not shown
# notes: copies: 2 + 2
# B10: H237-MB384/MRAL-k0 (antibody, mouse IgG1, kappa)
# heavy: B1 heavy with A230N, W231A
# light: not shown
# notes: copies: 2 + 2
# B11: H237-MB385/MRAL-k0 (antibody, mouse IgG1, kappa)
# heavy: B1 heavy with A230N, W231N
# light: not shown
# notes: copies: 2 + 2
# B12: H237-MB386/MRAL-k0 (antibody, mouse IgG1, kappa)
# heavy: B1 heavy with A230N
# light: not shown
# notes: copies: 2 + 2
# B13: H237-MB388/MRAL-k0 (antibody, mouse IgG1, kappa)
# heavy: B1 heavy with A230P, W231P
# light: not shown
# notes: copies: 2 + 2
# B14: H237-MB391/MRAL-k0 (antibody, mouse IgG1, kappa)
# heavy: B1 heavy with A230P
# light: not shown
# notes: copies: 2 + 2
# B15: H237-MB392/MRAL-k0 (antibody, mouse IgG1, kappa)
# heavy: B1 heavy with A230P, W231Y
# light: not shown
# notes: copies: 2 + 2
# B16: H237-MB393/MRAL-k0 (antibody, mouse IgG1, kappa)
# heavy: B1 heavy with A230T, W231P
# light: not shown
# notes: copies: 2 + 2
# B17: H237-MB394/MRAL-k0 (antibody)
# heavy: B1 heavy with A230T, W231A
# light: not shown
# notes: Printed M8394, read as MB394; also called M8394; copies: 2 + 2
# B18: H237-MB395/MRAL-k0 (antibody, mouse IgG1, kappa)
# heavy: B1 heavy with A230T, W231N
# light: not shown
# notes: copies: 2 + 2
# B19: H237-MB396/MRAL-k0 (antibody, mouse IgG1, kappa)
# heavy: B1 heavy with A230T
# light: not shown
# notes: copies: 2 + 2
# B20: H237-MB398/MRAL-k0 (antibody, mouse IgG1, kappa)
# heavy: B1 heavy with A230W, W231P
# light: not shown
# notes: copies: 2 + 2
# B21: H237-MB399/MRAL-k0 (antibody, mouse IgG1, kappa)
# heavy: B1 heavy with A230W, W231A
# light: not shown
# notes: copies: 2 + 2
# B22: H237-MB400/MRAL-k0 (antibody, mouse IgG1, kappa)
# heavy: B1 heavy with A230W, W231N
# light: not shown
# notes: copies: 2 + 2
# B23: H237-MB401/MRAL-k0 (antibody, mouse IgG1, kappa)
# heavy: B1 heavy with A230W
# light: not shown
# notes: copies: 2 + 2
# B24: H237-MB402/MRAL-k0 (antibody, mouse IgG1, kappa)
# heavy: B1 heavy with A230W, W231Y
# light: not shown
# notes: copies: 2 + 2
# B25: H237-MB404/MRAL-k0 (antibody, mouse IgG1, kappa)
# heavy: B1 heavy with E229D, W231Y
# light: not shown
# notes: also called M8404; copies: 2 + 2
# B26: H237-MB405/MRAL-k0 (antibody, mouse IgG1, kappa)
# heavy: B1 heavy with E229I, W231Y
# light: not shown
# notes: copies: 2 + 2
# B27: H237-MB406/MRAL-k0 (antibody, mouse IgG1, kappa)
# heavy: B1 heavy with E229P, W231Y
# light: not shown
# notes: copies: 2 + 2
# Molecular target: T1, mouse FcγRII extracellular domain with …
# Experiment: SPR Biacore T200; KD mFcγRIII / KD mFcγRII
# Description: (§1) Each altered antibody was analyzed for its interaction with each Fcγ receptor prepared above using Biacore T100 (GE Healthcare Japan Corp.), Biacore T200 (GE Healthcare Japan Corp.), Biacore A100, or Biacore 4000. The running buffer used was HBS-EP+ (GE Healthcare Japan Corp.). The assay temperature was set to 25° C. The sensor chips used were chips prepared by immobilizing Protein L (ACTIGEN or BioVision) onto Series S Sensor Chip CM5 (GE Healthcare Japan Corp.) or Series S Sensor Chip CM4 (GE Healthcare Japan Corp.) by the amine coupling method.
# (§2) In order to calculate the KD value of each altered antibody for FcγR, kinetic analysis was conducted according to the following method: first, the antibody of interest was captured onto any of these chips and allowed to interact with mFcγR diluted with a running buffer. For the obtained sensorgram, the assay results were globally fit into the 1:1 Langmuir binding model using Biacore Evaluation Software to calculate an association rate constant ka (L/mol/s) and a dissociation rate constant kd (1/s). From these values, the dissociation constant KD (mol/L) was calculated.
Binder,I/A (mFcγRII selectivity),relative I/A (mFcγRII selectivity) (mIgG1 = 1)
B1,30,22.4
B2,31.4,23.4
B3,–,27.7
B4,–,25.6
B5,–,21.3
B6,–,18.6
B7,–,18.7
B8,–,16.5
B9,–,19.6
B10,–,19.8
B11,–,19.2
B12,24.9,18.6
B13,34.6,25.9
B14,34.7,25.9
B15,23.9,17.8
B16,–,16
B17,–,17.8
B18,–,18.7
B19,22.3,16.6
B20,–,13
B21,–,18.2
B22,–,15
B23,–,23.7
B24,23.3,17.4
B25,37,27.6
B26,–,18.2
B27,–,29.6

# Molecular target: T1, mouse FcγRII extracellular domain with …
# Experiment: SPR Biacore T200
# Description: as §1, §2
Binder,Kd [nM],relative mFcγRII-binding activity (mIgG1 = 1)
B1,0.952,221
B2,0.782,268
B3,–,114
B4,–,159
B5,–,127
B6,–,172
B7,–,78.1
B8,–,93.5
B9,–,106
B10,–,125
B11,–,152
B12,0.784,268
B13,0.757,277
B14,0.747,281
B15,0.817,257
B16,–,89.9
B17,–,134
B18,–,154
B19,0.707,297
B20,–,45.8
B21,–,71.8
B22,–,81.7
B23,–,162
B24,1.01,208
B25,0.891,236
B26,–,146
B27,–,191

# Molecular target: T2, mouse FcγRIII extracellular domain with …
# Experiment: SPR Biacore T200
# Description: as §1, §2
Binder,Kd [nM],relative mFcγRIII-binding activity (mIgG1 = 1)
B1,28.6,9.9
B2,24.6,11.5
B3,–,4.1
B4,–,6.2
B5,–,6
B6,–,9.3
B7,–,4.2
B8,–,5.7
B9,–,5.4
B10,–,6.3
B11,–,7.9
B12,19.5,14.5
B13,26.2,10.8
B14,25.9,10.9
B15,19.5,14.5
B16,–,5.6
B17,–,7.5
B18,–,8.2
B19,15.8,17.9
B20,–,3.5
B21,–,3.9
B22,–,5.5
B23,–,6.9
B24,23.6,12
B25,33,8.6
B26,–,8
B27,–,6.5
